Measured values: patent US20140004122A1, “METHODS FOR TREATING OR PREVENTING CHOLESTEROL RELATED DISORDERS” (AMGEN INC., priority 2011, published 2014)
Entries after “also recorded” stand apart in the source; their conditions may differ. Like-named read-outs stand apart in the source and are kept apart here.

What was measured:
[1] = tested on: patients from four studies described in Examples 22-25; assay: Aggregate data of the studies of Examples 22-25; assay type: in vivo, human
[2] = tested on: human patient exhibiting a risk of developing hypercholesterolemia; assay: Prevention of hypercholesterolemia (Example 19); assay type: in vivo; conditions: regularly administered (e.g., one time weekly)
From the text: At periodic times during the treatment, the patient is monitored to determine whether serum cholesterol levels have decreased.

[3] = tested on: subjects with hyperlipidemia on stable doses of a statin; assay: Phase 1b ascending multiple dose study on stable statin (Example 21); assay type: in vivo
Protocol: The study had seven cohorts. […] Cohort 6 was conducted in hypercholesterolemic subjects on high doses of a statin (atorvastatin 80 mg or rosuvastatin 40 mg).

[4] = tested on: LDLR in HepG2 cells; assay: LDLR levels with statin and ABP in HepG2 cells (immunoblot); assay type: cell-based, human; conditions: HepG2 and HepG2-PCSK9 cells, with mevinolin, 48 hours
Protocol: HepG2 cells were seeded in DMEM with 10% fetal bovine serum (FBS) and grown to ˜90% confluence. The cells were treated with indicated amounts of mevinolin (a statin, Sigma) and PCSK9 ABPs (FIGS. 12A-12C) in DMEM with 3% FBS for 48 hours. Total cell lysates were prepared. […] of total proteins were separated by gel electrophoresis and transferred to PVDF membrane. Immunoblots were performed using rabbit anti-human LDL receptor antibody (Fitzgerald) or rabbit anti-human b-actin antibody. The enhanced chemiluminescent results are shown in the top panels of FIGS. 12A-12C. The intensity of the bands were quantified by ImageJ software and normalized by b-actin. The relative levels of LDLR are shown in the lower panels of FIGS. 12A-12C.

[5] = biological target: T1, human PCSK9 (Homo sapiens, UniProt Q8NBP7); assay: BIAcore affinity analysis; assay type: binding; conditions: human PCSK9, pH 6.0, n=1
[6] = tested on: subjects with heterozygous familial hypercholesterolemia (HeFH); assay: 12 week study in heterozygous familial hypercholesterolemia (Example 22); assay type: in vivo, human; conditions: preliminary
Protocol: This study is a double-blind, randomized, stratified, placebo-controlled clinical trial evaluating the safety, tolerability, and efficacy of monocloncal antibody 21B12 in subjects having a diagnosis of HeFH. A total enrollment of 150 subjects is planned. […] Randomization will be stratified by screening LDL-C level (<130 mg/dL [3.4 mmol/L] vs≧130 mg/dL) and ezetimibe use at baseline (yes vs no). Randomization should occur within 5-10 days of the screening LDL-C evaluation used to determine eligibility. Monoclonal antibody, 21B12, and placebo will be blinded. Study visits are at weeks 2, 4, 8, and 12. […] The end-of-study (EOS) visit and the last evaluation of lipids is at week 12.
Males and females, ≧18 to ≦75 years of age, and with a diagnosis of heterozygous familial hypercholesterolemia by the diagnostic criteria of the Simon Broome Register Group (SBRG), are eligible for this study. For enrollment, subjects must be on an approved statin, with stable dose(s) for all allowed (eg, ezetimibe, bile-acid sequestering resin, stanols, or regulatory-approved and marketed niacin (eg, Niaspan or Niacor)) lipid-regulating drugs for at least 4 weeks before LDL-C screening and, in the opinion of the investigator, not requiring uptitration. Fasting LDL-C must be ≧100 mg/dL (2.6 mmol/L) and fasting triglycerides ≦400 mg/dL (4.5 mmol/L) by central laboratory at screening.

[7] = biological target: T1, human PCSK9; assay: BIAcore affinity analysis; assay type: binding; conditions: pH 7.4; read-out: KD hPCSK9
Protocol: Briefly, the surface plasmon resonance experiments were performed using Biacore 2000 optical biosensors (Biacore, GE Healthcare, Piscataway, N.J.). […] The concentration of PCSK9 protein was varied at 2 fold intervals (the analyte) and was injected over the immobilized antibody surface (at a flow rate of 100 μl/min for 1.5 minutes). Fresh HBS-P buffer (pH 7.4, 0.01 M Hepes, 0.15 M NaCl, 0.005% surfactant P-20, Biacore) supplemented with 0.01% BSA was used as binding buffer.
The binding signal obtained was proportional to the free PCSK9 in solution.
Antibody binding kinetic parameters including ka (association rate constant), kd (dissociation rate constant), and KD (dissociation equilibrium constant) were determined using the BIA evaluation 3.1 computer program (BIAcore, Inc. Piscataway, N.J.).

[8] = Pharmacokinetics in cynomolgus monkeys; assay type: in vivo, cynomolgus monkey; conditions: 0.5 mg/kg single SC
Protocol: Antibody concentrations in serum were determined using an enzyme-linked immunosorbent assay (ELISA) with an assay range of 34.4 to 3000 ng/mL (34.4 ng/mL being the lower limit of quantitation [LLOQ]).
Non-compartmental analysis (NCA) was performed on the serum concentrations using the pre-determined nominal time points for each subject using Watson® LIMS, version 7.0.0.01 (Thermo Scientific, Waltham, Mass.). Data points for estimating the terminal elimination rate constants and half-lives were chosen by visual inspection of the concentration-time profile and best linear fit (typically from 360 h until the antibody concentrations dropped below the lower limit of quantitation).
NCA parameters reported include: terminal half-life (t1/2,z), the maximum serum concentration (Cmax), area under the serum concentration-time curve from time zero to infinity (AUC0-inf), and apparent serum clearance (CL/F). AUC0-inf was calculated using the linear log-linear trapezoidal method. All parameters were all reported to three significant figures, except for half-life which was reported to two significant figures.

[9] = cohort 6, high-dose statins, 140 mg SC Q2W 3 times
[10] = 350 mg Q4W SC, end of the dosing interval

T1 sequence (Q8NBP7 153-692): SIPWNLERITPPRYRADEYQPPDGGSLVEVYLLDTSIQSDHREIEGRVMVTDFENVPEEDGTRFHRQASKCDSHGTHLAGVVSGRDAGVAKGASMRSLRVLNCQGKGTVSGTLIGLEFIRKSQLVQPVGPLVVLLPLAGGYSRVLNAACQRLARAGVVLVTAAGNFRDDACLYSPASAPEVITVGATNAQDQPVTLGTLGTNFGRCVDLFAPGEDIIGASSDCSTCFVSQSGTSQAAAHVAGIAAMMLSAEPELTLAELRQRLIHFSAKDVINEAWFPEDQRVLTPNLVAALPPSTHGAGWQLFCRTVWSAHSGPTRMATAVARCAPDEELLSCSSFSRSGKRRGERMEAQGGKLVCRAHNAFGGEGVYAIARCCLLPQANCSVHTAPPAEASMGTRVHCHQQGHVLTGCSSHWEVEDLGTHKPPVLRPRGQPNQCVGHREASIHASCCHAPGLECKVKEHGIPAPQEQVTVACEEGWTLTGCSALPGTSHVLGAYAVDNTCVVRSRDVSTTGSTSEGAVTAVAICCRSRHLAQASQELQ

B1: 21B12: human anti-PCSK9 monoclonal antibody; light/heavy variable region SEQ ID NO 23/49 (antibody, listed as Homo sapiens, V domains shown)
VH: QVQLVQSGAEVKKPGASVKVSCKASGYTLTSYGISWVRQAPGQGLEWMGWVSFYNGNTNYAQKLQGRGTMTTDPSTSTAYMELRSLRSDDTAVYYCARGYGMDVWGQGTTVTVSS
VL: QSALTQPASVSGSPGQSITISCTGTSSDVGGYNSVSWYQQHPGKAPKLMIYEVSNRPSGVSNRFSGSKSGNTASLTISGLQAEDEADYYCNSYTSTSMVFGGGTKLTVL
reduction from baseline in LDL-C at week 12 ([1]; 140 mg Q2W): ~60% | reduction from baseline in LDL-C at week 12 ([1]; 420 mg Q4W): ~56% | dose dependent reduction from baseline in ApoB ([1]; p values <0.001): 36-53% | dose dependent reduction from baseline in non-HDL-C ([1]; p values <0.001): 36-53% | dose dependent reduction from baseline in total cholesterol ([1]; p values <0.001): 25-37% | serum cholesterol levels vs subjects that are not treated [2]: lowered serum cholesterol levels | maximum ApoB reduction during the study ([3]; 35 mg QW): 48% | maximum ApoB reduction during the study ([3]; 140 mg and 280 mg Q2W and 420 mg Q4W): 59% | plasma PCSK9 ([3]; at higher doses): undetectable | suppression of PCSK9 ([3]; cohort 3, 140 mg Q2W SC 3 times, preliminary): Near-complete suppression of PCSK9 | maximum reduction in LDL-C versus placebo [3, 9]: 73% | mean reduction in LDL-C vs placebo at the end of the dosing interval [3, 9]: 63% | maximum LDL-C reduction versus placebo ([3]; cohort 7 heFH): 70% | maximum reduction of ApoB versus placebo ([3]; cohort 7 heFH): 57% | maximum reduction of non-HDL cholesterol versus placebo ([3]; cohort 7 heFH): 67% | maximum total cholesterol reduction versus placebo ([3]; cohort 7 heFH): 47% | serious AEs ([3]; cohort 7 heFH): No serious AEs were reported | mean reduction in LDL-C vs placebo at the end of the dosing interval ([3]; cohort 7 heFH, 140 mg SC Q2W 3 times, week 6): 65% | mean reduction in ApoB levels vs placebo ([3]; cohort 7 heFH, week 6): up to 47% | mean reduction in lipoprotein a (Lp(a)) vs placebo ([3]; cohort 7 heFH, week 6): 50% | mean reduction in non-HDL cholesterol vs placebo ([3]; cohort 7 heFH, week 6): 61% | mean reduction in serum PCSK9 values vs placebo ([3]; cohort 7 heFH, week 6): 78% | mean reduction in total cholesterol vs placebo ([3]; cohort 7 heFH, week 6): up to 42% | mean ApoB reduction vs placebo at the end of the dosing interval ([3]; cohorts 1-5): up to 54% | mean reduction of PCSK9 levels vs placebo at the end of the dosing interval ([3]; cohorts 1-5): up to 94% | mean LDL-C reduction vs placebo at maximal reduction ([3]; cohorts 1-5, low to moderate doses of statins, 3 biweekly SC doses): up to 81% | mean LDL-C reduction vs placebo at the end of the dosing interval ([3]; cohorts 1-5, week 6 after 3 biweekly SC doses): ≤ 75% | mean LDL-C reduction at the end of the dosing interval ([3]; cohorts 1-5, week 8 after 2 every 4 week SC doses): ≤ 66% | mean Lp(a) reduction vs placebo at the end of the dosing interval ([3]; cohorts 1-6): up to 43% | deaths or serious adverse events ([3]; cohorts 1-6, final results): No deaths or serious adverse events (AEs) were reported; also recorded: no serious AEs | neutralizing antibodies to 21B12 ([3]; cohorts 1-6, final results): No neutralizing antibodies to 21B12 were detected | circulating PCSK9 ([3]; heFH subjects after treatment): undetectable | LDL-C nadir observed within (after initial dosing) ([3]; preliminary, cohorts 1-3, stable moderate doses of statins): ≤ 2 weeks | decrease of circulating LDL-C vs placebo ([3]; repeated SC doses over 6 weeks, low-to-moderate or high-dose statins): up to 81% | LDLR levels compared with the 25A7.1 ABP (a non-neutralizer) [4]: greater increase in LDLR levels | Kd [5]: 0.0073 nM | LS mean percent increase from baseline in HDL-C [6, 10]: 15.39% | LS mean percent reduction from baseline in LDL-C [6, 10]: 38.46% | LS mean percent reduction from baseline in Lp(a) [6, 10]: 21.69% | LS mean percent reduction from baseline in VLDL-C [6, 10]: 17.16% | LS mean percent reduction from baseline in non-HDL cholesterol [6, 10]: 36.16% | LS mean percent reduction from baseline in total cholesterol [6, 10]: 24.82% | LS mean percent reduction from baseline in triglycerides [6, 10]: 17.24% | LS mean percent increase from baseline in HDL-C ([6]; 420 mg Q4W SC): 6.77% | LS mean percent reduction from baseline in LDL-C ([6]; 420 mg Q4W SC): 45.68% | LS mean percent reduction from baseline in Lp(a) ([6]; 420 mg Q4W SC): 28.23% | LS mean percent reduction from baseline in VLDL-C ([6]; 420 mg Q4W SC): 18.49% | LS mean percent reduction from baseline in non-HDL cholesterol ([6]; 420 mg Q4W SC): 41.81% | LS mean percent reduction from baseline in total cholesterol ([6]; 420 mg Q4W SC): 29.45% | LS mean percent reduction from baseline in triglycerides ([6]; 420 mg Q4W SC): 4.56% | Kd [7]: 0.19 nM | half-life [8]: ~40 h
